Assay results taken from paper PMC9388122.

Tests used:
[1] = target: (H3-H4)2 tetramer (recombinant Xenopus laevis histones) (X. laevis) (UniProt P84233); assay: single-molecule photobleaching steps (optical tweezers with fluorescence detection); H2A-Cy3 hexasomes ligated to 2.5-kb DNA handles
[2] = target: (H3-H4)2 tetramer (recombinant Xenopus laevis histones) (X. laevis) (UniProt P84233); assay: single-molecule photobleaching steps (optical tweezers with fluorescence detection); H2A-Cy3 nucleosomes ligated to 2.5-kb DNA handles, at low tension

## H2A-Cy3-H2B heterodimer (H2A labelled with one Cy3 at the C-terminal tail by sortase) (from UniProt P06897 1-130; P02281 1-126) (complex)
[1]
  stoichiometry N: 1
[2]
  stoichiometry N: 2
